# In patent publication US20120178682A1 (published 2012):
# Bridge positions count the residues as written; N and C are the ends. Ends that are not written are not given here.
# B1: RFX002 (enantiomer and preparation not stated at paragraph 530) (designed binder)
# chain: TYKMILNGKTLKSECTTEAVDLFDAFDVLFVCAASNFSFIDDWTYDDATKTFTVTE
# modifications: disulfide 15-32 (inferred); also: enantiomer (L- or D-form) not given here
# Legend:
# [1] = target: VEGF (form and enantiomer not stated at paragraph 530); experiment: Octet-SPR, preliminary estimate, reference RFX001
# VEGF (form and enantiomer not stated at paragraph 530), sequence (P15692 whole entry): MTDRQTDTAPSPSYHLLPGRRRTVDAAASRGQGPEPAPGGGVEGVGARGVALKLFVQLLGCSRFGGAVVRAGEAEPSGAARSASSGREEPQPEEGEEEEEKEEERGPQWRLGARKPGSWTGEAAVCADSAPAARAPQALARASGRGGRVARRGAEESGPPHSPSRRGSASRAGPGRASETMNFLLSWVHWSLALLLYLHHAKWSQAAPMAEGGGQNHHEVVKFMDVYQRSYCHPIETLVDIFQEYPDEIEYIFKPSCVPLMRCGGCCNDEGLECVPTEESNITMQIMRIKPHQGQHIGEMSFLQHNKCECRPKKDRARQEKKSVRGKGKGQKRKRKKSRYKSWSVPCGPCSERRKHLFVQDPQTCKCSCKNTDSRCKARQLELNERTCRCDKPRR
# [2] = target: VEGF (form and enantiomer not stated at paragraph 530); experiment: standard SPR, preliminary estimate, reference RFX001
binder,measurement,setting,value
B1,fold increase of binding affinity against RFX001,[1],~5 fold
same,fold increase of binding affinity against RFX001,[2],~2 fold
